The record followed here is paper doi:10.1101/2024.12.23.630100 (bioRxiv, 2024).

The target of test [1] is T1, SHP2 C-SH2 domain 102-220 (human, UniProt Q06124 102-220).
T1 sequence (looked up): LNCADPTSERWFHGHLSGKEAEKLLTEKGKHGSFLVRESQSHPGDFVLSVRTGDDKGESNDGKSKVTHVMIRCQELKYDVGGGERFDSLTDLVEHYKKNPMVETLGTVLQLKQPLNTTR
Briefly: ITC. A general note: Isothermal titration calorimetry measures the heat released or taken up as one component is titrated into another.

Test [2] concerns the target T2, SHP2 tandem domain N-SH2-C-SH2-SHP2 1-222 (human, UniProt Q06124 1-222).
T2 sequence (looked up): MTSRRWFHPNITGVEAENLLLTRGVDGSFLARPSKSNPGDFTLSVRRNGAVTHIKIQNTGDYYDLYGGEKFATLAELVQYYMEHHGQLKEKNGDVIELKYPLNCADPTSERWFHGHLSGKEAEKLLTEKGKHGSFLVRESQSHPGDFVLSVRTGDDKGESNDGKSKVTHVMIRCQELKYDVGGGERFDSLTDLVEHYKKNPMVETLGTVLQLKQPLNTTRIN
Briefly: ITC.

Square brackets hold non-standard residues; d marks the D form. Ends that are not written are not given here. pY = N[C@@H](Cc1ccc(OP(=O)(O)O)cc1)C(=O)O

Regarding ERVD[pY]VVVDQQK (peptide, UniProt Q13480 655-666, looked up) [pY659-Gab1 655-666 monophosphorylated peptide (C-terminally truncated)], in test [1], the “fold reduction of affinity against pY659-Gab1 655-677” value was determined as 10 fold.

One may read the Kd as the equilibrium constant for the complex coming apart. A low value points to higher affinity. As for ERVD[pY]VVVDQQKTLALKSTREAW (peptide, UniProt Q13480 655-677, looked up) [pY659-Gab1 655-677 monophosphorylated peptide], in test [1], the Kd turned out to be 4 µM.

B1: pY627pY659-Gab1 613-694 (bis-phosphorylated fragment of Grb2-associated binding protein 1) (peptide, UniProt Q13480 613-694, looked up)
chain: SSPMIKPKGDKQVEYLDLDLDSGKSTPPRKQKSSGSGSSVADERVDYVVVDQQKTLALKSTREAWTDGRQSTESETPAKSVK
modifications: phosphotyrosine at 627 and 659
In the case of B1, the affinity in test [2], expressed as Kd, was 0.037 ± 0.013 µM.
